The values below come from article PMC2683204.

The target in this experiment is Fluorescein-maleamide labeled purified FN (UniProt P02751). In words: SDS-PAGE, non-reducing against reducing.

The substance “Fluorescein-maleamide labeled purified FN (from UniProt P02751 32-2477) (natural protein)” yielded a stoichiometry N of 2.

The stoichiometry N is the number of molecules, sites or subunits per partner or assembly.
